Test results published in patent US20250049939A1, “NOVEL FLT3 ANTIBODIES AND ANTIBODY-DRUG-CONJUGATES BASED THEREON, THERAPEUTIC METHODS AND USES THEREOF IN COMBINATION WITH TYROSINE KINASE INHIBITORS” (TUBULIS GmbH, priority 2021, published 2025).

T1: FLT3 as expressed on FLT3 positive human leukemia and lymphoma cell lines (e.g. MOLM-13) (human) (UniProt P36888)
T1 sequence (looked up): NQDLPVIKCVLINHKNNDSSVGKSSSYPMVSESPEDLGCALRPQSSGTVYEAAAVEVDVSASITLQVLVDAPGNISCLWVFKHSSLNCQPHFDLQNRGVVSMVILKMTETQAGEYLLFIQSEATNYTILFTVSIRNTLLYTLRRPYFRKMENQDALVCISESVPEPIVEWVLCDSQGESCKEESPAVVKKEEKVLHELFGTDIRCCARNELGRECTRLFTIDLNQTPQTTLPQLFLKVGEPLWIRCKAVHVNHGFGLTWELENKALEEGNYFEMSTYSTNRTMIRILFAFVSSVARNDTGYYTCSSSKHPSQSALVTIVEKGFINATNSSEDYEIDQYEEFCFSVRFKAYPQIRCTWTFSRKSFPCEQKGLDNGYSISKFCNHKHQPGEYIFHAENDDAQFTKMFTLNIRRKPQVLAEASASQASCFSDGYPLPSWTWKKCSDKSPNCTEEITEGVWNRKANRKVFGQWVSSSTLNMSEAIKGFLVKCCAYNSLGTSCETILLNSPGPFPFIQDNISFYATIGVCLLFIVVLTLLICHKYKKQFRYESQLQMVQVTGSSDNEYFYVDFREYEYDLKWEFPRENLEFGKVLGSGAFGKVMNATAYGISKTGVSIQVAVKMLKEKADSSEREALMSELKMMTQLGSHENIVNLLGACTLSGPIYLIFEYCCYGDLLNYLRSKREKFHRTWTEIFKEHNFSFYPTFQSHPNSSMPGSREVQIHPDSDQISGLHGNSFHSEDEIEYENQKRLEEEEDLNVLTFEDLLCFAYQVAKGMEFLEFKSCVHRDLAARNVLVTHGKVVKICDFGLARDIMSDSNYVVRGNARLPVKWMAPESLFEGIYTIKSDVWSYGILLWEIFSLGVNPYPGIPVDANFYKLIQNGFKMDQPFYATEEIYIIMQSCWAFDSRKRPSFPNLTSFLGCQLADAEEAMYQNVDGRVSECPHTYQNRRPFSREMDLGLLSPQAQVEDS


Key:
[1] = target: recombinant human FLT3 protein (human) (UniProt P36888); assay: ELISA on recombinant human FLT3, normalized to BSA control
[2] = target: T1, FLT3 as expressed on FLT3 positive human leukemia and lymphoma cell lines (e.g. MOLM-13) (human); assay: cell-based or functional assay

| Kd [1] [mg/L] | Binder | IC50 of cytotoxicity in MOLM-13 cells, 96 h, resazurin [2] [mg/L] |
| --- | --- | --- |
| 0.134 | 19H5 chimeric anti-FLT3 monoclonal antibody (antibody, V domains shown) VH: MVQPSQTLSLTCTVSGFSLTSYNVNWVRQPPGKGLEWIGAMWRGGGTDYNPALKSRLSISRDTSKSQVFLKMNRLQTEDTAIYFCTRGFGDYWGQGVMVTVSS VL: DVQMTQSPSSMSASLGDRVTFTCQASQDIGNNLIYFQQKPGKSPRRMICCATNLAHGVPSRFSGSRSGSDYSLTLVSLESEDVADYHCLQYEHYPRTFGGGTKLELKR |  |
|  | deglycosylated 20D9-ADC (antibody, V domains shown) VH: DVMLVESGGGLVQPGRSLKLSCVASGFTFNNYWMTWIRQAPGKGLEWIASITKTGGGTYYPDSVKGRFTISRDNAKSTLYLQMNSLRSEDTATYYCTTLQQLGVMDAWGQGASVTVSS VL: DVQMTQSPSVLSASVGDRITLNCKASQNINKELNWYQQKLGEAPKLLIYNTNNLQTGIPSRFSGSGSGTDYTLTISSLQPEDVATYFCFQHKSWPLTFGSGTKLEIKR | 0.474 |
